In US20190016800A1 (NANJING LEADS BIOLABS, published 2019):

Tests used:
[1] = molecular target: T1, Human LAG-3 protein (Cat#LA3-5222, Acrobiosystems) (human, UniProt P18627 23-450); experiment: ELISA blocking assay: human LAG-3 immobilized, antibody mixed with biotin labeled LSECtin, streptavidin-HRP, OD450-620
T1 construct: Bought protein; also called recombinant human LAG-3; LAG3 recombinant protein
T1 sequence: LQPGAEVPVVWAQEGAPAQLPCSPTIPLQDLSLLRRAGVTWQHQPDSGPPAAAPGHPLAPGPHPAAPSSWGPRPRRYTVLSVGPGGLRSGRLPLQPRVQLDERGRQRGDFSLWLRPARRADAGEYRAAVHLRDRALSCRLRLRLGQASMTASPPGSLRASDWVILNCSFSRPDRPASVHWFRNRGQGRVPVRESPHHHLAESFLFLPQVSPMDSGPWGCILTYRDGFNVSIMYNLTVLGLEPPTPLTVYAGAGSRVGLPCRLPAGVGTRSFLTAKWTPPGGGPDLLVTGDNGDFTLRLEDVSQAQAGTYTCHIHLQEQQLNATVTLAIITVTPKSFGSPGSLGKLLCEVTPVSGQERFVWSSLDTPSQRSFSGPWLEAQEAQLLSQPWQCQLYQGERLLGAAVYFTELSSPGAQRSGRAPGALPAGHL

[2] = molecular target: T1, Human LAG-3 protein (Cat#LA3-5222, …); experiment: ELISA, human LAG-3 recombinant protein immobilized, serially diluted antibody, anti-human IgG-HRP, OD450-620
[3] = molecular target: T2, Mouse LAG-3 (Acrobiosystems) (mouse, UniProt Q61790 24-442, limits assumed); experiment: ELISA, mouse LAG-3 recombinant protein immobilized
T2 construct: Bought protein; also called mouse LAG-3 recombinant protein
T2 sequence (looked up): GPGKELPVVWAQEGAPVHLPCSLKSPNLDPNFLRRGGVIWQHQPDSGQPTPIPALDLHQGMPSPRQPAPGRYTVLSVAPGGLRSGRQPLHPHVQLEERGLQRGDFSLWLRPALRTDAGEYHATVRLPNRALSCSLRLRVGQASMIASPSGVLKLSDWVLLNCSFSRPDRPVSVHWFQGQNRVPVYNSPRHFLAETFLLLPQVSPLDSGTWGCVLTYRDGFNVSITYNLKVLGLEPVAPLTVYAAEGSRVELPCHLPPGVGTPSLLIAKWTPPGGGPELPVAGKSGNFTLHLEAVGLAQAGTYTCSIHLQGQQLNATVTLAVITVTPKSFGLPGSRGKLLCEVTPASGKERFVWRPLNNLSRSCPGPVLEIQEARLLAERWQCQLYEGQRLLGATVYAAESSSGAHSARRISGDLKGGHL

[4] = molecular target: T3, LAG-3 fusion protein comprising human LAG-3 extracellular domain fused to mouse Fc (SinoBiological, … (human; mouse, UniProt P18627 23-450); experiment: flow cytometry blocking assay: antibody premixed with hLAG-3-mFc, binding of hLAG-3-mFc to MHC class II on Daudi cells read as MFI
T3 construct: Bought fusion protein; not shown: mouse Fc
T3 sequence: T1 sequence

[5] = molecular target: T4, human CD4 recombinant protein (Sino Biological) (human, UniProt P01730 26-390, limits assumed); experiment: ELISA, human CD4 recombinant protein immobilized
T4 construct: Bought protein

[6] = molecular target: T5, Recombinant LAG-3 domain 1-2 (Amino acid 1-262) fused to human IgG1 Fc domain (human, UniProt P18627 23-262); experiment: ELISA, human LAG-3 domain 1-2 Fc fusion immobilized, serially diluted antibody, anti-human F(ab')2-HRP, OD450-620
T5 construct: also called domain 1-2 of human LAG-3; not shown: human IgG1 Fc domain
T5 sequence: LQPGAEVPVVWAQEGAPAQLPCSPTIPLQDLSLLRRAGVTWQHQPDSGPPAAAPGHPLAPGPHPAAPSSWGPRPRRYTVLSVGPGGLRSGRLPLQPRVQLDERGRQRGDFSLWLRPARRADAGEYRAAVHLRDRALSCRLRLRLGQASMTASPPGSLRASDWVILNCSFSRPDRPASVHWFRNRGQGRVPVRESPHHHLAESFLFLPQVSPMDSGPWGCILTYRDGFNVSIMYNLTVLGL

[7] = molecular target: T1, Human LAG-3 protein (Cat#LA3-5222, …); experiment: SPR Biacore T200, antibody captured on anti-human IgG (Fc), human LAG-3 injected 6.25-200 nM, 1:1 Langmuir fit
[8] = molecular target: cynomolgus monkey LAG-3 protein (Cat#LA3-C52A0, Acrobiosystems) (cynomolgus monkey); experiment: BLI ForteBio Octet RED 96, biotin labeled antibody on streptavidin sensor, antigen 3.125-100 nM, 1:1 fit
[9] = molecular target: T6, recombinant rhesus monkey LAG-3 protein (Amino acids 1-450 of XM_001108923.3 fused to human IgG1 Fc domain) (rhesus monkey; human, UniProt P18627 23-450); experiment: as above
T6 construct: not shown: human IgG1 Fc domain
T6 chain: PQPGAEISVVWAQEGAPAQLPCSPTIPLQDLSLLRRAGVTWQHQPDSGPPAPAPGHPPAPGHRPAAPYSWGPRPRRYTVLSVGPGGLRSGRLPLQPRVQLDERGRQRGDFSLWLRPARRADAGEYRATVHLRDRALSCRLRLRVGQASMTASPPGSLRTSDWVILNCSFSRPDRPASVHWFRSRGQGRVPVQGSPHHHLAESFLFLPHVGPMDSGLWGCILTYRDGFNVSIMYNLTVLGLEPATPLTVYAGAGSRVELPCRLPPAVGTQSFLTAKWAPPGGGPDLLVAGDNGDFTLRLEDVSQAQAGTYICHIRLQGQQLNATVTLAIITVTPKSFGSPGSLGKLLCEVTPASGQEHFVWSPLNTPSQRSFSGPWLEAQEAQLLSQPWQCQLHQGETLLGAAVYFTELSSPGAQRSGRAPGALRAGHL

[10] = molecular target: T1, Human LAG-3 protein (Cat#LA3-5222, …); experiment: as above
[11] = molecular target: T1, Human LAG-3 protein (Cat#LA3-5222, …); experiment: phage ELISA on coated LAG3

B1: anti-LAG-3 antibody 2# (antibody, V domains shown)
VH: QVQLQESGGGVVRPGGSLRLSCAASGFTFDDYGMSWVRQAPGKGLEWVSGINWSGGSTYYADSVKGRSTISRDNSKNTLYLQMNSLRAEDTAVYYCATGGYWGQGTLVTVSS
VL: not shown
notes: elsewhere IgG4 is preferred; also called Clone 2#; clone #2
IC50 [1]: 6.48 nM
EC50 [2]: 0.105 nM
binding result [3]: no binding (tested: about 10 nM)
IC50 [4]: 11.5 nM
binding result [5]: no binding (tested: about 20 nM)
EC50 [6]: 0.228 nM
Kd [7]: 0.348 nM
koff [7]: 0.00062 s⁻¹
kon [7]: 1.78e+06 M⁻¹ s⁻¹
Kd [8]: 1.27 nM
koff [8]: 0.00058 s⁻¹
kon [8]: 457000 M⁻¹ s⁻¹
Kd [9]: 1.22 nM
koff [9]: 0.000676 s⁻¹
kon [9]: 554000 M⁻¹ s⁻¹
Kd [10]: 0.13 nM
koff [10]: 3.65e-05 s⁻¹
kon [10]: 280000 M⁻¹ s⁻¹

B2: anti-LAG-3 antibody 8# (antibody, human IgG4 S228P, lambda, V domains shown)
VH: B1 VH
VL: SYELTQPPSVSVSPGQTASITCSGDKLGDKYTSWYQQKPGQSPLLVIYQSTKRPSGIPERFSGSNSGDTATLTISGTQPMDEADYYCQAWDSSTAVFGGGTKLTVLG
notes: also called Clone 8#; Clone 8
EC50 [2]: 0.637 nM
binding result [3]: no binding (tested: about 10 nM)
IC50 [4]: 31.5 nM
binding result [5]: no binding (tested: about 20 nM)
EC50 [6]: 1.99 nM
Kd [7]: 2.08 nM
koff [7]: 0.000298 s⁻¹
kon [7]: 143000 M⁻¹ s⁻¹

B3: anti-LAG-3 antibody 13# (antibody, human IgG4 S228P, lambda, V domains shown)
VH: B1 VH
VL: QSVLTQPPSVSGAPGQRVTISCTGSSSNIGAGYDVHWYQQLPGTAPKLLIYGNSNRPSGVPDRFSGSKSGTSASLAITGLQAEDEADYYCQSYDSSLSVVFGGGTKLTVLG
notes: The VH is the same as that of clone 8; also called Clone 13#; Clone 13
EC50 [2]: 0.509 nM
binding result [3]: no binding (tested: about 10 nM)
binding result [5]: no binding (tested: about 20 nM)
EC50 [6]: 1.46 nM
Kd [7]: 486 nM
koff [7]: 0.0448 s⁻¹
kon [7]: 92200 M⁻¹ s⁻¹

B4: anti-LAG-3 antibody 6# (antibody, human IgG4 S228P, lambda, V domains shown)
VH: QVQLVQSGGGVVQPGRSLRLPCAASGFTFSSYGMHWVRQAPGKGLEWVAAISYDGSNKYYADSVKGRFTISRDNSKNTLYLQMNSLRAEDTAVYYCAREGSYYLEGIDYWGQGTLVTVSS
VL: QSVLTQPPSVSEAPRQRVTISCSGSSSNIGDNAVNWYQQLPGKAPTLLIYYDDLLPSGVPDRFSGSKSGTSASLAISGLQSEDEAEYYCAAWDDSLKGYVFGTGTKLTVLG
notes: also called Clone 6#; Clone 6
binding result [3]: no binding (tested: about 10 nM)
binding result [5]: no binding (tested: about 20 nM)
Kd [7]: 38.4 nM
koff [7]: 0.000943 s⁻¹
kon [7]: 24600 M⁻¹ s⁻¹

B5: clone 6# as single chain Fv displayed on phage (scFv)
scFv: QVQLVQSGGGVVQPGRSLRLPCAASGFTFSSYGMHWVRQAPGKGLEWVAAISYDGSNKYYADSVKGRFTISRDNSKNTLYLQMNSLRAEDTAVYYCAREGSYYLEGIDYWGQGTLVTVSSSGGSTITSYNVYYTKLSSSGTQSVLTQPPSVSEAPRQRVTISCSGSSSNIGDNAVNWYQQLPGKAPTLLIYYDDLLPSGVPDRFSGSKSGTSASLAISGLQSEDEAEYYCAAWDDSLKGYVFGTGTKLTVLG
binding result [11]: binds

B6: clone 8# as single chain Fv displayed on phage (scFv)
scFv: QVQLQESGGGVVRPGGSLRLSCAASGFTFDDYGMSWVRQAPGKGLEWVSGINWSGGSTYYADSVKGRSTISRDNSKNTLYLQMNSLRAEDTAVYYCATGGYWGQGTLVTVSSSGGSTITSYNVYYTKLSSSGTSYELTQPPSVSVSPGQTASITCSGDKLGDKYTSWYQQKPGQSPLLVIYQSTKRPSGIPERFSGSNSGDTATLTISGTQPMDEADYYCQAWDSSTAVFGGGTKLTVLG
binding result [11]: binds
